Ends that are not written are not given here. * marks the point of attachment. Biotin = O=C1N[C@H]2[C@H](CS[C@H]2CCCCC(=O)*)N1
What was measured:
Experiment in all cases: A/G assays
[1] = target: T1, GST-TAX-IP43 PDZ domain fusion protein (human, UniProt Q13884 109-180)
T1 construct: also called TAX43; not shown: glutathione S-transferase encoded by vector pGEX-3X (Pharmacia)
T1 sequence: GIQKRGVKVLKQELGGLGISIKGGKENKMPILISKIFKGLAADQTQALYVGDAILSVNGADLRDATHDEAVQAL

[2] = target: T2, GST-LIM protein PDZ domain fusion protein (Human, UniProt Q96HC4 2-85)
T2 construct: also called Human LIM protein; not shown: glutathione S-transferase encoded by vector pGEX-3X (Pharmacia)
T2 sequence: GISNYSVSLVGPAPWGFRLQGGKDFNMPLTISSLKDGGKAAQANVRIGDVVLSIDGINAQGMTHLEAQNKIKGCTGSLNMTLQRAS

[3] = target: T3, GST-TAX-IP2 PDZ domain fusion protein (human, UniProt O14908 129-216)
T3 construct: also called TAX-1P2; TAX2; not shown: glutathione S-transferase encoded by vector pGEX-3X (Pharmacia)
T3 chain: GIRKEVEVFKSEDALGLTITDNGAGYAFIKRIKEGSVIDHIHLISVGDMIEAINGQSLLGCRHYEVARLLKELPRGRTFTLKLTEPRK

[4] = target: T4, GST-MPP1 PDZ domain fusion protein (Homo sapiens (Human), UniProt Q00013 67-152)
T4 construct: also called p55; 55 Kd erythrocyte membrane protein; not shown: glutathione S-transferase encoded by vector pGEX-3X (Pharmacia)
T4 sequence: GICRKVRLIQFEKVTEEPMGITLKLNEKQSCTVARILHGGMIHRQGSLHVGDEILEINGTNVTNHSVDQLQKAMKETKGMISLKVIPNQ

[5] = target: T5, GST-AF6 PDZ domain fusion protein (Homo sapiens (Human), UniProt P55196 1001-1093)
T5 construct: also called af-6 protein; not shown: glutathione S-transferase encoded by vector pGEX-3X (Pharmacia)
T5 sequence: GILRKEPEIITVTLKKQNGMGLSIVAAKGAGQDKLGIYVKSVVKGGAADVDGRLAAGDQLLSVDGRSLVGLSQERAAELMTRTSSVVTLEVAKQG

[6] = target: T6, GST-PDZK1 fusion protein (PDZ domains 2-4) (Homo sapiens, UniProt Q5T2W1 134-457)
T6 construct: not shown: glutathione S-transferase encoded by vector pGEX-3X (Pharmacia)
T6 sequence: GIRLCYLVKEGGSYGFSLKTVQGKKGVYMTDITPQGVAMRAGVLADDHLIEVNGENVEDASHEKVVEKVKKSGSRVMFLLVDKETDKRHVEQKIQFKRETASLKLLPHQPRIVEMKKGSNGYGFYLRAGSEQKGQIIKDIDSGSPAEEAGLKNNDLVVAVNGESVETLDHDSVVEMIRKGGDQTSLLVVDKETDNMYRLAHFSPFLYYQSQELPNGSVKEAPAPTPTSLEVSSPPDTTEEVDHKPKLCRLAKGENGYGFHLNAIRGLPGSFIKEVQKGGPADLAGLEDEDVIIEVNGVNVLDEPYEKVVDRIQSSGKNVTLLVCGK

[7] = target: T7, GST-mouse syntenin fusion protein (Mus musculus, UniProt O08992 108-286)
T7 construct: also called Mus musculus Syntenin; not shown: glutathione S-transferase encoded by vector pGEX-3X (Pharmacia)
T7 chain: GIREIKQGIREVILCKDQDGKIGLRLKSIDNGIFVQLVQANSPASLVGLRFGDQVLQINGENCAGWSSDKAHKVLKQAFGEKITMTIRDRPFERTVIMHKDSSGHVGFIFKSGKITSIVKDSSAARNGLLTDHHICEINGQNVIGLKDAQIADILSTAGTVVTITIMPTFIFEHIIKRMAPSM

[8] = target: T8, GST-TAX-IP40 PDZ domain fusion protein (human, UniProt Q6B4M5 150-252 (rat entry))
T8 construct: also called TAX40; not shown: glutathione S-transferase encoded by vector pGEX-3X (Pharmacia)
T8 sequence: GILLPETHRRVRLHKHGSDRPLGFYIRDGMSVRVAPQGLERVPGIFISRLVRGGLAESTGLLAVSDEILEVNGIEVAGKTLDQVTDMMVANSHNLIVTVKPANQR

[9] = target: T9, X11β PDZ-GST fusion protein (Rattus norvegicus (Rat), UniProt O35431 560-745)
T9 construct: Order of GST and PDZ part and limits not seen in the excerpts
T9 chain: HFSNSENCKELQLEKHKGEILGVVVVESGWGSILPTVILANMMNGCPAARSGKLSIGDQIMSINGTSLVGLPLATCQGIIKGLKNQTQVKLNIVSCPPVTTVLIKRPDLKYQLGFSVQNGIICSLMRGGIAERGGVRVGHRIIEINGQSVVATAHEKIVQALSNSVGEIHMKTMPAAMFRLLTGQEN

[10] = target: T10, TAX-IP33 PDZ-GST fusion protein (Homo sapiens (Human), UniProt O14910 103-193)
T10 construct: Order of GST and PDZ part and limits not seen in the excerpts
T10 sequence: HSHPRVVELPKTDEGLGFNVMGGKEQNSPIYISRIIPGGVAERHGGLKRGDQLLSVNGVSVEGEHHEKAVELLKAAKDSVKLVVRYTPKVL

[11] = target: T11, K559 PDZ-GST fusion protein (Homo sapiens (Human), UniProt Q9Y6V0 4489-4593)
T11 construct: Order of GST and PDZ part and limits not seen in the excerpts
T11 sequence: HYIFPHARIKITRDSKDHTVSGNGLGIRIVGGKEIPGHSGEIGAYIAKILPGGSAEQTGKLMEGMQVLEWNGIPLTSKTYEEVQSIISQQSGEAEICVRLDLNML

[12] = target: T12, PICK1 PDZ-GST fusion protein (Bos taurus (Bovine), UniProt Q2T9M1 17-105)
T12 construct: Order of GST and PDZ part and limits not seen in the excerpts

[13] = target: T13, K316 PDZ-GST fusion protein (Homo sapiens (Human), UniProt Q14CM0 72-159)
T13 construct: Order of GST and PDZ part and limits not seen in the excerpts

[14] = target: T14, K858 PDZ-GST fusion protein (Homo sapiens (Human), UniProt Q8WWI1 1038-1131)
T14 construct: Order of GST and PDZ part and limits not seen in the excerpts
T14 sequence: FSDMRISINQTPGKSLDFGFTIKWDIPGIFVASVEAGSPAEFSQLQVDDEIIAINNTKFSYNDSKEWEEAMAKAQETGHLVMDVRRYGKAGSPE

[15] = target: T15, SP short PDZ-GST fusion protein (Homo sapiens (Human), UniProt O43464 350-435)
T15 construct: The label SP short is not explained in the excerpts
T15 sequence: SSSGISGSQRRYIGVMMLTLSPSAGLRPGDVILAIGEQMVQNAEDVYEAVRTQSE

Measured: binding result

T13 sequence (Q14CM0 72-159 limits assumed): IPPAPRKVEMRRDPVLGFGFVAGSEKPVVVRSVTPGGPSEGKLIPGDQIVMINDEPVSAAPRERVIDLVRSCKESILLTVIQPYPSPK
T12 sequence (Q2T9M1 other isoform, or with tags, fused parts or gaps limits assumed): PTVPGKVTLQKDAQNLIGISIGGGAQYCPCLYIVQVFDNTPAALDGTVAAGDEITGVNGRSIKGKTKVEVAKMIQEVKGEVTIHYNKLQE

Biotin-DLGNMEENKKLEENNHKTEA (also called CD166 (CD6L)) [CD166 C-terminal peptide AA20L, biotinylated]
no binding: all assays above

Biotin-YSATYSELEDPGEMSPPIDL (also called FceRlb; FcεRβI) [FceRIb C-terminal peptide AA25L, biotinylated]
no binding: all assays above

Biotin-LASKSAEEGKQIPDSLSTDL [DOCK2 C-terminal peptide AA40L, biotinylated]
no binding: all assays above

Biotin-VTSPNKHLGLVTPHKTELV [CD83 C-terminal peptide AA47L, biotinylated]
no binding: all assays above

B1: CC CKR-2 C-terminal peptide AA42L (peptide)
peptide: Biotin-GKGKSIGRAPEASLQDKEGA
notes: Only the last four residues are seen in the excerpts
no binding: all assays above

B2: CC CKR-4 C-terminal peptide AA44L (peptide)
peptide: Biotin-DTPSSSYTQSTMDHDLHDAL
notes: as for B1
no binding: all assays above

B3: CC CKR-1R C-terminal peptide AA41L (peptide)
peptide: Biotin-LERVSSTSPSTGEHELSAGF
notes: as for B1
no binding: all assays above

Biotin-KKGTYLTDETHREVKFTSL [CD46 (Form 1) C-terminal peptide AA10L, biotinylated]
no binding: all assays above

Reference: patent US20050037969A1 (ARBOR VITA, published 2005)
